# Literature values, collected in patent US20020168685A1, “Covalent chemical inducers of protein dimerization and their uses in high throughput binding screens” (priority 2001, published 2002).
# Details: substrate nitrocefin
molecule,measurement,value
"E. cloacae P99 wt: wild-type E. cloacae P99 cephase (protein, UniProt P05364 21-381, looked up) Beta-lactamase: TPVSEKQLAEVVANTITPLMKAQSVPGMAVAVIYQGKPHYYTFGKADIAANKPVTPQTLFELGSISKTFTGVLGGDAIARGEISLDDAVTRYWPQLTGKQWQGIRMLDLATYTAGGLPLQVPDEVTDNASLLRFYQNWQPQWKPGTTRLYANASIGLFGALAVKPSGMPYEQAMTTRVLKPLKLDHTWINVPKAEEAHYAWGYRDGKAVRVSPGMLDAQAYGVKTNVQDMANWVMANMAPENVADASLKQGIALAQSRYWRIGSMYQGLGWEMLNWPVEANTVVEGSDSKVALAPLPVAEVNPPAPPVKASWVHKTGSTGGFGSYVAFIPEKQIGIVMLANTSYPNPARVEAAYHILEALQ",% WT (percentage of wild-type kcat/Km as calculated in that experiment),100%
same,Km,25 ± 1 µM
same,kcat,780 ± 30 s⁻¹
